Assay results reported in patent US20070141052A1.

Columns and labels:
[1] = molecular target: biotin-labeled soluble FcRn; experiment: ELISA: biotinylated soluble FcRn on NeutrAvidin plate, IgG supernatant at pH 6.0, anti-human Fab-HRP detection; details: scale: % of wild type
[2] = molecular target: biotin-labeled soluble FcRn; experiment: ELISA: biotinylated soluble FcRn on NeutrAvidin plate, IgG supernatant at neutral pH, anti-human Fab-HRP detection; details: scale: % of wild type
[3] = molecular target: soluble human FcγRIII (human) (UniProt P08637); experiment: antigen-capture ELISA: IgG captured on PSA-coated plate, biotinylated soluble human FcγR, NeutrAvidin-AP; background-subtracted, normalized to parent
Chain of UniProt P08637 (P08637 17-208): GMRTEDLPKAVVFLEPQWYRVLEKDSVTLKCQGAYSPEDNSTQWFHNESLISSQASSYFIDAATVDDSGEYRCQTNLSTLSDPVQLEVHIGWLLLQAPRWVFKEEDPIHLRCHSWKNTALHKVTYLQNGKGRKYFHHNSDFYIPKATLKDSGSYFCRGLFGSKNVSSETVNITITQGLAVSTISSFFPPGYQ

[4] = molecular target: soluble human FcγRIIb (human) (UniProt P31994); experiment: as above
Chain of UniProt P31994 (P31994 43-217): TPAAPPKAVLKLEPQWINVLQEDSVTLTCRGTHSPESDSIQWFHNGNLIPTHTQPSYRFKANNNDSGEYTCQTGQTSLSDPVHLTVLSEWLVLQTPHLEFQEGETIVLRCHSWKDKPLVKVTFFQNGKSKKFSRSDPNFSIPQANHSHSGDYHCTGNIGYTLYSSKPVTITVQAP

[5] = molecular target: soluble human FcγRIII (human) (UniProt P08637); experiment: antigen-capture ELISA as for Tables 3-5 but with an anti-TNFα parent IgG; biotinylated soluble human FcγR; normalized to parent
[6] = molecular target: soluble human FcγRIIb (human) (UniProt P31994); experiment: as above
[7] = molecular target: soluble human FcγRIIa (human) (UniProt P12318); experiment: antigen-capture ELISA: IgG captured on PSA-coated plate, biotinylated soluble human FcγR, NeutrAvidin-AP; background-subtracted, normalized to parent
Chain of UniProt P12318 (P12318 34-217): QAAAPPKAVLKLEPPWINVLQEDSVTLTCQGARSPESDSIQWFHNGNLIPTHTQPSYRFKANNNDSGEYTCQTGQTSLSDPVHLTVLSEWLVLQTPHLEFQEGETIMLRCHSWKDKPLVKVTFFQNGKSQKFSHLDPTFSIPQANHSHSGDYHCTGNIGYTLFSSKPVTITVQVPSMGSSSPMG

FcRn 6.0 [1]	FcRn 7.0 [2]	relative FcγRIII (relative to parental antibody (=1.0)) [3]	relative FcγRIIb (relative to parental antibody (=1.0)) [4]	Substance	further results
71	51			anti-CD20 IgG Fc variant D280A (antibody)	
		2.31	0.188	anti-PSA IgG Fc variant S298D (antibody)	
		1.42	0.363	anti-PSA IgG Fc variant S298N (antibody)	
		1.06	1.34	anti-PSA IgG Fc variant Q295L (antibody)	relative FcγRIIa (relative to parental antibody (=1.0)) [7]: 1.44
145	131			anti-CD20 IgG Fc variant D280K (antibody)	
		1.81	1.36	anti-PSA IgG Fc variant Y300L (antibody)	
82	23			anti-CD20 IgG Fc variant D280T (antibody)	
91	90			anti-CD20 IgG Fc variant D280H (antibody)	
130	17			anti-CD20 IgG Fc variant K290N (antibody)	
93	61			anti-CD20 IgG Fc variant D280N (antibody)	

More lines, now with the values behind:

Substance	FcRn 6.0 [1]	FcRn 7.0 [2]	relative FcγRIII (relative to parental antibody (=1.0)) [3]	relative FcγRIIb (relative to parental antibody (=1.0)) [4]	further results
anti-CD20 IgG Fc variant K290T (antibody)	148	8			
anti-PSA IgG Fc variant S298V (antibody)			2.8	0.592	
anti-TNFα IgG Fc variant D280Y (antibody)					relative FcγRIII (relative to parental antibody (=1.0)) [5]: 1.23; relative FcγRIIb (relative to parental antibody (=1.0)) [6]: 2.14
anti-TNFα IgG Fc variant D280H (antibody)					relative FcγRIII (relative to parental antibody (=1.0)) [5]: 1.24; relative FcγRIIb (relative to parental antibody (=1.0)) [6]: 0.92
anti-TNFα IgG Fc variant K290S (antibody)					relative FcγRIII (relative to parental antibody (=1.0)) [5]: 1.23; relative FcγRIIb (relative to parental antibody (=1.0)) [6]: 1.4
anti-PSA IgG Fc variant Q295K (antibody)			1.47	0.892	
anti-TNFα IgG Fc variant D280Q (antibody)					relative FcγRIII (relative to parental antibody (=1.0)) [5]: 1.19; relative FcγRIIb (relative to parental antibody (=1.0)) [6]: 0.87
anti-PSA IgG Fc variant Y300I (antibody)			1.38	1.26	
anti-TNFα IgG Fc variant K290G (antibody)					relative FcγRIII (relative to parental antibody (=1.0)) [5]: 1.64; relative FcγRIIb (relative to parental antibody (=1.0)) [6]: 1.46
anti-CD20 IgG Fc variant K290P (antibody)	146	34			
anti-CD20 IgG Fc variant K290V (antibody)	149	73			
anti-PSA IgG Fc variant E294N (antibody)			1.14	0.672	
anti-CD20 IgG Fc variant K290D (antibody)	154	25			
